Target: PdGH110B (GH110 family α-1,3-galactosidase from Pseudoalteromonas distincta U2A) (Pseudoalteromonas distincta U2A)
Test: dynamic light scattering; PdGH110B in solution at protein concentrations of 0.18, 0.37 and 0.73 mg/ml; monomer to dimer

stoichiometry N: 2
Substance: PdGH110B (GH110 family α-1,3-galactosidase from Pseudoalteromonas distincta U2A) (enzyme)
